In the test the target is FITC-labeled 45-mer peptide derived from the C-terminal region of IKKβ (FITC label (position not given)). Kind of test: fluorescence polarisation; fluorescence anisotropy binding assay with an FITC-labeled 45-mer peptide of IKKβ and bacterially expressed full-length NEMO proteins; conditions not told here (refs 13, 26). The conditions noted are these: both partners purified. In general terms: In fluorescence polarisation assays a small probe gives low polarisation when free and higher when bound to something large.

B1: 7XAla-NEMO (aa 1-419), bacterially expressed (natural protein)
chain: MNRHLWKSQLAEMVQPSGGPAADQDVLGEESPLGKPAMLHLPSEQGAPETLQRALEENQELRDAIRQSNQILRERAEELLHFQASQREEKEFLMAKFQEARKLVERLGLEKLDLKRQKEQALREVEHLKRAQQQMAEDKASVKAQVTSLLGELQESQSRLEAATKEAQALEGRARAASEQARQLESEREALQQQHSVQVDQLRMQGQSVEAALRMERQAASEEKRKLAQLQVAYHQLFQEYDNHIKSSVVGSERKRGMQLEDLKQQLQQAEEALVAKQEVIDKLKEEAEQHKIVMETVPVLKAQADIYKADFQAERQAREKLAEKKELLQEQLEQLQREYSKLKASAQESARIEDMRKRHVEVSQAPLPPAPAYLSSPLALPSQRRSPPEEPPDFCCPKCQYQAPDMDTLQIHVMECIE
The molecule B1 came in with a Kd of 0.013 ± 0.0029 µM.

In general, Kd refers to the concentration at which binding is half-saturated. A lower Kd goes with tighter binding.
